Laboratory results reported in the DeepSol protein solubility set.

Test: soluble on expression in E. coli; label from the status in PepcDB or PDB records

| Sequence | soluble on expression in E. coli |
| --- | --- |
| MGSDKIHHHHHHMVATLDDTKRNAIAVKLASIKALQQLVIENEQSLLREGLDAEIADRIRNFLKDDEKNLGVLETVIGQYGIQAEPKKNVTQFIEKARELFKGSELSLYEKVSQHELLKHQLVMSGLIVHKAAQKVGADVLLAIGPLNTINFENRAHQEQLKGILEILGVREFTGQDADQGIWARVQDAMAAVSGVVGSAVTQTSDKSDLNIQDVIRLDHNKVNTLFTELLQSDNPQKIQEYFGQIYKDLTAHAEAEEEVVYPRVRPFYGQDNTQELFDEQAEMKRVLEQIKAISPSSSEFKDRVRQLMEAVGDHIRQEESTMFAAIRNNLSSDQSEQLATEFKAAKTRIQEKLGVVSESNA | not soluble |
| MGSDKIHHHHHHMVEMNFKVDAFEGPLDLLLHLIGQLEVDIYDIPMAEITDQYMEFVHTMQEMELDVASEYLVMAATLLAIKSKMLLPKQELEIDYDTLEEEEDPRDALVEKLMEYKRFKEAAKELKEKEAERSFYFSKPPMDLAEYDDGTKVAELDVSLNDMLSAFNKMLRRKKLNKPLHTRITTQEISIDQRMDSVLEKLNLQVNHRLRFDELFEEQTKEQLVVTFLALLELMKRKLVEVEQAESFADLYVQGKGEEIS | not soluble |
| MGSDKIHHHHHHMVETKLIIRADDLGYSDAVNIGIERSVHKGIINNVGVMVNMPTTLDGLSMIRDTKVCLGLHVVISSGRPLLNPKFIPSIVDDDGAFLSSADYRKAPNDFVNLDEVILEIEAQYQKFIELVGRKPDYFEGHAVVSDNFFKGLLVVAKCHQLNLLQVTLNSGRPSLLFKGHSLHVFMESMNKDYNPYQTLKRAVLSSCDEEYPMMICHPGYLDDYLLKHSSLTTPRTKEVEMLTDPQVRAWLYQHQVRLIKYNEI | not soluble |
| MGSDKIHHHHHHMVEVVGVRFREAGHIYYFAPGKSEYIYNEKVLVESQQSKQLATVAIPKKTVDSDDLPEDLKPILNKATANDLEKEQKNLADAEAAKSIANEKIRAHDLKMKLVRVEYTFDRSKMIFYFTADGRIDFRELVKDLAAIFRTRIELRQIGVRDEAKILGGIGPCGRQLCCSTFLGDFMPVSIKMAKDQGLSLNPVKISGLCGRLMCCLKYENDEYEAAKKELPDYGKEVITPDGKGKVVGLNLLSRIVKVRLHGREIAADYDYEEIKEATAKVAAEKGDQNG | not soluble |
| MGSDKIHHHHHHMVIYMIGGSPCSGKSTIASLLARQYQLLHIKLDDLVDEMMSQASADSQPICLLRQDRNPEQIWMRNPKEMADEEWRFYEEIFPYVKSYLIKKDRPLLVEGAGLLPHLVKELEWPASSYLCLTPTADFQKKHYRQREWVSYVLEGTTNPEQAFENWMQRDILFAQMVRKEAMRLGYSSLMTDGSQSEKQTAEEIARLLKLYNINEIDIKGENT | not soluble |
| MGSDKIHHHHHHMVNKFTQFLVAFISLWMLHSCSGPQKEYVLKVKLNKLTQKDMYEYNLVKDVIFDAQELNVDSIKARSRESFLKGVDEYKNKHNAAAAVPLFKQSILTFPDAKTYYELGNALMELNTEASLDESIKAYRVAEELDIKPIASVYYKMACAQNMIGTLKKSDEDEYMVISYLRKSFINGFYDTLTLAKDTRINSILSTMSYKTLLRELESFKYKEDRNGLFELFKQAYPRPVEFEAALTDLTQYENKESISYDFAVFVPEMQNTEFGREVSNDFFYNALVQETPAYTALIYTSVSFWGDHDALMPSFTSLVTYDPMGIIIDRKLIACQCSAEKVKTVKIKDNKVYVEDFKRIWKQPIDKVSFDDNEVDKFESLAKLTYTINEDGTIQASEIPANYMDTVITKDQSKNTPQ | not soluble |
| MGSDKIHHHHHHMVNMNIIEIRSDKIYKKIMDAPINKKEDIYRYELMKPFEFKWKCMNVPIVARQKGGYDVIIASEMLGVLSPKDIDEKQKKNINVLSADKIWATCKETIENSINAFIKEGYDLNIKDYKYSILLANPNSPYTILSDGYWGDGGIPGYIFLSLVPNEYTINRLPVLIAHECNHNIRFQFIEWNNNITLEEMMINEGLAENFATWMFGEEMLGPWVSRTDIETLNTYIKPIIKSALKETGFQNITSYLYGDDIAKMQGYFPVGLPYCAGYACGYYMIKYYLEKTNKSIIEATLLPYSEIIEAVKEFWE | not soluble |
| MGSDKIHHHHHHMVPMTRFDSATEVVRVGENRYAVELDPGYLIGTAMNGGYLMTVLQRSALAESDHLHAVSSSYHFHRPASSGPAEIETRVLKRGRTVTTVQTTLFQEGRTILTGTLATATLDPHAEPRYAAPQPAIPPQHQCRRVDPRQSHLPDDGFLARVDVDFSPDSYAALARERTVTTPELCGYVDLSARDGGSAKDPLAFLPLAVDALPPIVSLLVDWSWAPTVELTWHLRAIPEPGPLAFRSTCALVSDGWFDENVDLWDARGRLVAQSRQLARVGR | not soluble |
| MGSDKIHHHHHHMVQSLKVILWGEEIGRLAWDARRRLSYFMYNPAFLKKGLNISPLAAPVDGARGLMPVWGEEAKIYQKLPAFLADSLPDSWGNQLFELWRQQNHLSNADITPLDKLSFIGKRGMGALEFLPEVSRERKAEKIDIKSLANLAERIFSERENARILPEESVTMQSLLTVGTSAGGRQPKAIVAINLKNGEVRSGQISGLEEFDYYLVKFGNSQYSSAELEMSYYELATMAGINMMPSKLYQVDGNNHFMTKRFDRNHGKKIHTQTLAAISPDADSYEQLITVCRKLHLPETDCYEVFRRMVFNVLANNTDDHNKNFSFVMSEDGTWRLSPAYDVTYIFDNGGFLPNEDHCMYIRAKLRNITREDVIQFAKDNGIRRPDAIIRDIVNAMKQFRTVATKYGVAEQWVGRVENTIVDRLKSWRELEEMAPEICELVINGHIIKNIRIEQAYKGNFHLLAEIDGHERKFIIGKNKEEFSLIESMGIANLSSNQLKDMVEKYFIHLKV | not soluble |
| MGSDKIHHHHHHMVRVRFAPSPTGFLHVGGARTALFNFLFARKEKGKFILRIEDTDLERSEREYEEKLMESLRWLGLLWDEGPDVGGDHGPYRQSERVEIYREHAERLVKEGKAYYVYAYPEEIEEMREKLLSEGKAPHYSQEMFEKFDTPERRREYEEKGLRPAVFFKMPRKDYVLNDVVKGEVVFKTGAIGDFVIMRSNGLPTYNFACVVDDMLMEITHVIRGDDHLSNTLRQLALYEAFEKAPPVFAHVSTILGPDGKKLSKRHGATSVEAFRDMGYLPEALVNYLALLGWSHPEGKELLTLEELISSFSLDRLSPNPAIFDPQKLKWMNGYYLRNMPIEKLAELAKPFFEKAGIKIIDEEYFKKVLEITKERVEVLSEFPEESRFFFEDPAPVEIPEEMKEVFSQLKEELQNVRWTMEEITPVFKKVLKQHGVKPKEFYMTLRRVLTGREEGPELVNIIPLLGKEIFLRRIERSLGG | soluble |
| MGSDKIHHHHHHMVSLLRRTFSEEIKEELVNVPFGSREEVISELLGFIKARGDLDVKSRHIVFSLHSFAASRRLLNLMKYLSKPVSEIIVEKSHNIKKRYIKITAEYSESFMVIEPFFDVALFVSFLRGLFLSGGSMTNPRYHYHLEINLFEEETLALTRKSLKDFFNINAGIIELRNTRKLYIKSIKDILVFLEAIGVQRKLEEIDRIVTERKVIGDVNRTVNFIEANAIRTANSTARQIRAIELIKENMGLENLPEDLRRVALVRLRNKELSLRELGKKLNLTKSQIYSKLKRIIKIAERFGDVK | not soluble |
| MGSDKIHHHHHHMVTKTKTRLGNQRPTQSVTLHYVESLAHEAIELYQKTGRNCYPWQVNLLENIMGIDNNGLWVHQKYGYAIPRRNGKTEDVYILELWALHHGLRILHTAHRISTSHSSFEALKKLLEDMGYVEDVDFVSNKAKGQERIEFKSTGSVIQYRTRTSNGGLGEGFDLLIIDEAQEYTVEQESALKYTVTDSDNPMTVMCGTPPTMVSTGTVFTNFRTKVLAGKSEYSGWSEWSVEDIKDVNDIDSWYLTNPSLGYHLTERKIKAEIGDDELDHNIQRLGYWPSFNQKSAISENEWKRLKVDDVPELSGKLFVGIKYGQDGSNVSMSIAARTIDKKIFIEVIDCQSVRNGMQWIINFLQTADIEKVVVDGANGQTLLANEMKDFKLREPIMPTVSEIITANSVWEQAIVQETLRHANQPSLTEVVTNCDKRNIGSNGGFGYKSLYDDRDISLMDSALLAHWVCYMTKPKRKQRISY | not soluble |
| MGSDKIHHHHHHMVVALQYRTDLLEIHRFTRFESSLAHLGFRHFQPLASLRPWVHRYFHLQVATNLPQSIEQTFYPDGGTSLQFYFPAPSLNTNSDEPKVVFHCGQSLHSHAFVPGIEQMIVRFHPGGAFHLLGIAVQEIQQTSSHTVIEATQLHLPGLNQLLSQLADTNQPMQRIAQLEQWLLQLIKPQLDRGTWSTAGIVQMSLPRLIQPQTRLENFYGQLALSRRQFERRFKQETGLSPAQLQQLNRVKIARDLLSQSPELNLAQVAFDCGFYDQAHLHQHFVRVTQQTPGQYKKRKMSQISNLTQR | not soluble |
| MGSDKIHHHHHHMVVNESMYQLGSVRSAIRELFEYGKKRAAIVGKENVYDFSIGNPSIPAPQIVNDTIKELVTDYDSVALHGYTSAQGDVETRAAIAEFLNNTHGTHFNADNLYMTMGAAASLSICFRALTSDAYDEFITIAPYFPEYKVFVNAAGARLVEVPADTEHFQIDFDALEERINAHTRGVIINSPNNPSGTVYSEETIKKLSDLLEKKSKEIGRPIFIIADEPYREIVYDGIKVPFVTKYYDNTLVCYSYSKSLSLPGERIGYVLVPDEVYDKAELYAAVCGAGRALGYVCAPSLFQKMIVKCQGATGDINAYKENRDLLYEGLTRIGYHCFKPDGAFYMFVKALEDDSNAFCEKAKEEDVLIVAADGFGCPGWVRISYCVDREMIKHSMPAFEKIYKKYNK | not soluble |
| MGSDKIHHHHHHMWFCFLKSGFIIIKQILSTPFFSYKYNIKILINFKLISNIIEHKMLEYANKITLKGDNIMKFAVITDIHGNFDALQTVLDDIDSRDDIEKIYNLGDNIGIGHETNKVLDTIFDRDDMEMIAGNHDEAIMSLVNGTPYPEDLKGKFYEHHQWIEGHLDESYYDEINQLPRYIEMTIKGKKILFIHYEIENDKMSAPIDEQPFAPITKDDEQAISELFKDKEADLILFGHNHRLHMFDDKSTVYFNPGSVGLNNGSNTVYGIITVNEKGISVERVKLAYNNEEFLAGFEEKQVPAREFIFKNFI | not soluble |
| MGSDKIHHHHHHMWMNGFARWMDKLKVLSSEAGSKACWGYDACPAGDGIIASIDGYSMDSSRLPWMSLGDWGWKSVVAAASDVAASGGAPFHVMYSLGLDSVERAVDVARGVGEAAVWMGATVGKSDFNTSKSPWIDVAVLGKAEKPLGRFGAKPGMTLVQVGASGYGLLSHLTLQGRLSRDDLPGPVVEYTRRPKPPLRIGPELSSCEAAASIDNSDGLGASLHLLGVESGVSVVIDDILVDRHVEKVLDELGLEKWAVLQSWEDYNIVAVGGDGSIDCILRWCRRLNIECATVGYTSSDGAGRVLIEGGRREFRVSGWTWL | not soluble |
| MGSDKIHHHHHHMWQAISRLLEEHHGTADIQEHRELPGGEIHPAWYVRYGEHDVFVKCDSREMLAKFTAEADQLHLLSRSNTVRVPKVYGVGSSRDYSFLLLQYLPVKPLDAHSAWCLGEQLARLHQWSDQPQFGLDFDNDLSTTPQPNSWQRRWATFFAEQRIGWQLQLAAEKGMHFGHIETLIARVDERLAGHQPQPSLLHGDLWPDNCANSQDGGYLFDPACYWGDRECDLAMLPRYPALPAQIYDGYQSVWPLDKDFIDRQPIYQIYYLLNRANLFGGKNIVEAQQLIERQLLS | not soluble |
| MGSDKIHHHHHHMWTQQMIHTKRGTFELFTKGNGEPLCITHHYSQFNETGDYFADVFTSTHRVLLINLRDAGNSAKANSEKELSMIETIHDLEAIREALQLPTWHFAGHSTGGMLGLLYAITYPKSLQSLVLVGAAASNYTETPFCIYHPEHPQFHYMQHLIENLKSPHLTNEERKELSTERTKLSLHKPENYNSYFCKPIQKTMSASRMNAFSHEYPAFNLREHLPSMKTKTLIICGRYDVQCPIQYSIEMHEGIRNSIFVTFEESNHYPFLEEAAQFTSTIRTFYKLLH | not soluble |
